This passage reports Ki results from patent US20210032299A1 (Eli Lilly, published 2021).

Test [1] deals with T1, human glucose-dependent insulinotropic polypeptide (GIP) receptor (human, UniProt P48546 22-466).
T1 construct: whole, on cells; Assayed as crude membranes of stably transfected CHO cells; also called hGIPR; human GIP receptor
T1 sequence (looked up): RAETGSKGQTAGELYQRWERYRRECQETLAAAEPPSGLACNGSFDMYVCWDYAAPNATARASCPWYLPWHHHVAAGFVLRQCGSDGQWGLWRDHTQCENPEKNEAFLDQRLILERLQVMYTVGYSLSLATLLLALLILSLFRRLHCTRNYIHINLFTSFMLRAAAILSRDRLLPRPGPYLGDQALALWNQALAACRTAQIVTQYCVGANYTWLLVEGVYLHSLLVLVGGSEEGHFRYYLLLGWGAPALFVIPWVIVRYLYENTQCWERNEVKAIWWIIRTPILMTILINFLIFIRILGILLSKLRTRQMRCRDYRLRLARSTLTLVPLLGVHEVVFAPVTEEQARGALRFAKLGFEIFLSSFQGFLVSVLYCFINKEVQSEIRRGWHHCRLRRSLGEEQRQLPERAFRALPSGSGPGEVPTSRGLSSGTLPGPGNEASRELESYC
Nature of the test: SPA, displacement of [125I]-GIP from hGIPR membranes, 0.1% bacitracin. On the technique in general: Displacement assays read how much labelled ligand stays bound in the presence of the test substance.

The target in another test is T2, human glucagon receptor (human, UniProt P47871 26-477).
T2 construct: whole, on cells; Assayed as crude membranes of stably transfected HEK293 cells; also called hGcgR; GcgR
T2 sequence (P47871 26-477): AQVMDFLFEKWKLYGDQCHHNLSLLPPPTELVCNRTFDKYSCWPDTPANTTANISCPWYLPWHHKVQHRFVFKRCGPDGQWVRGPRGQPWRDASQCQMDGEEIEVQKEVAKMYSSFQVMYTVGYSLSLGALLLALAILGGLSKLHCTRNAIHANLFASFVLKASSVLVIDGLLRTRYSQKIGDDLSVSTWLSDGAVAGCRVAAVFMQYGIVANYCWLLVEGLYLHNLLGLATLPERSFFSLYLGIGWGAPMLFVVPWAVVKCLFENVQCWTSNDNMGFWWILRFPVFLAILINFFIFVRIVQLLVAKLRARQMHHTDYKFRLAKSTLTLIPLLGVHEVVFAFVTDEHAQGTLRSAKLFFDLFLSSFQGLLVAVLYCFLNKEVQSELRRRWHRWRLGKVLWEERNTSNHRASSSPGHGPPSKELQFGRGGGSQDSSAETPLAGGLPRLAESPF
Nature of the test: SPA, displacement of [125I]-Gcg from hGcgR membranes, 0.1% bacitracin. The procedure, abridged: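 Binding buffer: 25 mM HEPES pH 7.4, 2.5 mM CaCl₂, 1 mM MgCl₂, 0.003% Tween-20, protease inhibitors without EDTA. Counted by scintillation after 12 h incubation/settling at room temperature. Four-parameter nonlinear fit; Kᵢ given as geometric mean ± SEM of independent replicates run on different days.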

A further test has as its target T3, human GLP-1 receptor (human, UniProt P43220 24-463).
T3 construct: whole, on cells; Assayed as crude membranes of stably transfected HEK293 cells; also called hGLP1R; hGLP-1R
Briefly: SPA, displacement of [125I]-GLP-1 from hGLP-1R membranes, 0.1% bacitracin. The method, boiled down: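 Binding buffer: 25 mM HEPES pH 7.4, 2.5 mM CaCl₂, 1 mM MgCl₂, 0.1% bacitracin, 0.003% Tween-20, protease inhibitors without EDTA. Four-parameter nonlinear regression; Kᵢ given as geometric mean ± SEM, n = independent replicates run on different days.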

Starred links: 1 amine or outer side, 2 acyl side, 3 side chain; linkers in the order of their positions; H or OH if unused. Non-standard residues stand in square brackets, D forms with d. Groups on a side chain read outwards from the residue. No end group written: not given here. *: point of attachment. C20 diacid = O=C(O)CCCCCCCCCCCCCCCCCCC(=O)*; γGlu = O=C(O)[C@H](CCC(=O)[*:2])N[*:1]; αMeY = C[C@](N)(Cc1ccc(O)cc1)C(=O)O; 4Pal = N[C@@H](Cc1ccncc1)C(=O)O; αMeL = CC(C)C[C@](C)(N)C(=O)O; AEEA = NCCOCCOCC(=O)O; Aib = CC(C)(N)C(=O)O

B1: Example 85 (peptide)
peptide: Y[Aib]EGTFISDYSI[αMeL]LDEK([AEEA-AEEA-γGlu-C20 diacid])HQ[Aib]DFVE[4Pal]LLAAGPSSGAPPPS-NH2
modifications: N-terminus assumed
SMILES: CC[C@H](C)[C@H](NC(=O)[C@H](Cc1ccccc1)NC(=O)[C@@H](NC(=O)CNC(=O)[C@H](CCC(=O)O)NC(=O)C(C)(C)NC(=O)[C@@H](N)Cc1ccc(O)cc1)[C@@H](C)O)C(=O)N[C@@H](CO)C(=O)N[C@@H](CC(=O)O)C(=O)N[C@@H](Cc1ccc(O)cc1)C(=O)N[C@@H](CO)C(=O)N[C@H](C(=O)N[C@@](C)(CC(C)C)C(=O)N[C@@H](CC(C)C)C(=O)N[C@@H](CC(=O)O)C(=O)N[C@@H](CCC(=O)O)C(=O)N[C@@H](CCCCNC(=O)COCCOCCNC(=O)COCCOCCNC(=O)CC[C@H](NC(=O)CCCCCCCCCCCCCCCCCCC(=O)O)C(=O)O)C(=O)N[C@@H](Cc1c[nH]cn1)C(=O)N[C@@H](CCC(N)=O)C(=O)NC(C)(C)C(=O)N[C@@H](CC(=O)O)C(=O)N[C@@H](Cc1ccccc1)C(=O)N[C@H](C(=O)N[C@@H](CCC(=O)O)C(=O)N[C@@H](Cc1ccncc1)C(=O)N[C@@H](CC(C)C)C(=O)N[C@@H](CC(C)C)C(=O)N[C@@H](C)C(=O)N[C@@H](C)C(=O)NCC(=O)N1CCC[C@H]1C(=O)N[C@@H](CO)C(=O)N[C@@H](CO)C(=O)NCC(=O)N[C@@H](C)C(=O)N1CCC[C@H]1C(=O)N1CCC[C@H]1C(=O)N1CCC[C@H]1C(=O)N[C@@H](CO)C(N)=O)C(C)C)[C@@H](C)CC
In the case of B1, the inhibition constant (Ki) in test [1] amounted to 0.0529 nM; with human glucagon receptor, 800 nM; in the test with human GLP-1 receptor it was 220 nM.

B2: Example 86 (peptide)
peptide: Y[Aib]EGTFISDYSI[αMeL]LDEK([AEEA-AEEA-γGlu-C20 diacid])HQ[Aib]DFVE[4Pal]LLAGGPSSGAPPPS-NH2
modifications: N-terminus assumed
SMILES: CC[C@H](C)[C@H](NC(=O)[C@H](Cc1ccccc1)NC(=O)[C@@H](NC(=O)CNC(=O)[C@H](CCC(=O)O)NC(=O)C(C)(C)NC(=O)[C@@H](N)Cc1ccc(O)cc1)[C@@H](C)O)C(=O)N[C@@H](CO)C(=O)N[C@@H](CC(=O)O)C(=O)N[C@@H](Cc1ccc(O)cc1)C(=O)N[C@@H](CO)C(=O)N[C@H](C(=O)N[C@@](C)(CC(C)C)C(=O)N[C@@H](CC(C)C)C(=O)N[C@@H](CC(=O)O)C(=O)N[C@@H](CCC(=O)O)C(=O)N[C@@H](CCCCNC(=O)COCCOCCNC(=O)COCCOCCNC(=O)CC[C@H](NC(=O)CCCCCCCCCCCCCCCCCCC(=O)O)C(=O)O)C(=O)N[C@@H](Cc1c[nH]cn1)C(=O)N[C@@H](CCC(N)=O)C(=O)NC(C)(C)C(=O)N[C@@H](CC(=O)O)C(=O)N[C@@H](Cc1ccccc1)C(=O)N[C@H](C(=O)N[C@@H](CCC(=O)O)C(=O)N[C@@H](Cc1ccncc1)C(=O)N[C@@H](CC(C)C)C(=O)N[C@@H](CC(C)C)C(=O)N[C@@H](C)C(=O)NCC(=O)NCC(=O)N1CCC[C@H]1C(=O)N[C@@H](CO)C(=O)N[C@@H](CO)C(=O)NCC(=O)N[C@@H](C)C(=O)N1CCC[C@H]1C(=O)N1CCC[C@H]1C(=O)N1CCC[C@H]1C(=O)N[C@@H](CO)C(N)=O)C(C)C)[C@@H](C)CC
Regarding B2, the Ki turned out to be 0.0533 nM in test [1], 462 nM with human glucagon receptor and 108 nM with human GLP-1 receptor.

B3: Example 89 (peptide)
peptide: Y[Aib]EGTLISDYSI[αMeL]LDKK([AEEA-AEEA-γGlu-C20 diacid])HQ[Aib]DFVE[4Pal]LLEAGPSSGAPPPS-NH2
modifications: N-terminus assumed
SMILES: CC[C@H](C)[C@H](NC(=O)[C@H](CC(C)C)NC(=O)[C@@H](NC(=O)CNC(=O)[C@H](CCC(=O)O)NC(=O)C(C)(C)NC(=O)[C@@H](N)Cc1ccc(O)cc1)[C@@H](C)O)C(=O)N[C@@H](CO)C(=O)N[C@@H](CC(=O)O)C(=O)N[C@@H](Cc1ccc(O)cc1)C(=O)N[C@@H](CO)C(=O)N[C@H](C(=O)N[C@@](C)(CC(C)C)C(=O)N[C@@H](CC(C)C)C(=O)N[C@@H](CC(=O)O)C(=O)N[C@@H](CCCCN)C(=O)N[C@@H](CCCCNC(=O)COCCOCCNC(=O)COCCOCCNC(=O)CC[C@H](NC(=O)CCCCCCCCCCCCCCCCCCC(=O)O)C(=O)O)C(=O)N[C@@H](Cc1c[nH]cn1)C(=O)N[C@@H](CCC(N)=O)C(=O)NC(C)(C)C(=O)N[C@@H](CC(=O)O)C(=O)N[C@@H](Cc1ccccc1)C(=O)N[C@H](C(=O)N[C@@H](CCC(=O)O)C(=O)N[C@@H](Cc1ccncc1)C(=O)N[C@@H](CC(C)C)C(=O)N[C@@H](CC(C)C)C(=O)N[C@@H](CCC(=O)O)C(=O)N[C@@H](C)C(=O)NCC(=O)N1CCC[C@H]1C(=O)N[C@@H](CO)C(=O)N[C@@H](CO)C(=O)NCC(=O)N[C@@H](C)C(=O)N1CCC[C@H]1C(=O)N1CCC[C@H]1C(=O)N1CCC[C@H]1C(=O)N[C@@H](CO)C(N)=O)C(C)C)[C@@H](C)CC
In the case of B3, the Ki was determined as 0.072 nM in test [1], 611 nM with human glucagon receptor and 294 nM with human GLP-1 receptor.

B4: Example 91 (peptide)
peptide: Y[Aib]EGTFISDYSI[αMeL]LDKK([AEEA-AEEA-γGlu-C20 diacid])HQ[Aib]DFVE[αMeY]LLEGGPSSGAPPPS-NH2
modifications: N-terminus assumed
SMILES: CC[C@H](C)[C@H](NC(=O)[C@H](Cc1ccccc1)NC(=O)[C@@H](NC(=O)CNC(=O)[C@H](CCC(=O)O)NC(=O)C(C)(C)NC(=O)[C@@H](N)Cc1ccc(O)cc1)[C@@H](C)O)C(=O)N[C@@H](CO)C(=O)N[C@@H](CC(=O)O)C(=O)N[C@@H](Cc1ccc(O)cc1)C(=O)N[C@@H](CO)C(=O)N[C@H](C(=O)N[C@@](C)(CC(C)C)C(=O)N[C@@H](CC(C)C)C(=O)N[C@@H](CC(=O)O)C(=O)N[C@@H](CCCCN)C(=O)N[C@@H](CCCCNC(=O)COCCOCCNC(=O)COCCOCCNC(=O)CC[C@H](NC(=O)CCCCCCCCCCCCCCCCCCC(=O)O)C(=O)O)C(=O)N[C@@H](Cc1c[nH]cn1)C(=O)N[C@@H](CCC(N)=O)C(=O)NC(C)(C)C(=O)N[C@@H](CC(=O)O)C(=O)N[C@@H](Cc1ccccc1)C(=O)N[C@H](C(=O)N[C@@H](CCC(=O)O)C(=O)N[C@@](C)(Cc1ccc(O)cc1)C(=O)N[C@@H](CC(C)C)C(=O)N[C@@H](CC(C)C)C(=O)N[C@@H](CCC(=O)O)C(=O)NCC(=O)NCC(=O)N1CCC[C@H]1C(=O)N[C@@H](CO)C(=O)N[C@@H](CO)C(=O)NCC(=O)N[C@@H](C)C(=O)N1CCC[C@H]1C(=O)N1CCC[C@H]1C(=O)N1CCC[C@H]1C(=O)N[C@@H](CO)C(N)=O)C(C)C)[C@@H](C)CC
Take B4: the Ki in test [1] was found to be 0.122 nM; in the test with human glucagon receptor, 54.4 nM; with human GLP-1 receptor, 37.4 nM.

B5: Example 90 (peptide)
peptide: Y[Aib]EGTFISDYSI[αMeL]LDKK([AEEA-AEEA-γGlu-C20 diacid])HQ[Aib]DFVE[αMeY]LLEAGPSSGAPPPS-NH2
modifications: N-terminus assumed
SMILES: CC[C@H](C)[C@H](NC(=O)[C@H](Cc1ccccc1)NC(=O)[C@@H](NC(=O)CNC(=O)[C@H](CCC(=O)O)NC(=O)C(C)(C)NC(=O)[C@@H](N)Cc1ccc(O)cc1)[C@@H](C)O)C(=O)N[C@@H](CO)C(=O)N[C@@H](CC(=O)O)C(=O)N[C@@H](Cc1ccc(O)cc1)C(=O)N[C@@H](CO)C(=O)N[C@H](C(=O)N[C@@](C)(CC(C)C)C(=O)N[C@@H](CC(C)C)C(=O)N[C@@H](CC(=O)O)C(=O)N[C@@H](CCCCN)C(=O)N[C@@H](CCCCNC(=O)COCCOCCNC(=O)COCCOCCNC(=O)CC[C@H](NC(=O)CCCCCCCCCCCCCCCCCCC(=O)O)C(=O)O)C(=O)N[C@@H](Cc1c[nH]cn1)C(=O)N[C@@H](CCC(N)=O)C(=O)NC(C)(C)C(=O)N[C@@H](CC(=O)O)C(=O)N[C@@H](Cc1ccccc1)C(=O)N[C@H](C(=O)N[C@@H](CCC(=O)O)C(=O)N[C@@](C)(Cc1ccc(O)cc1)C(=O)N[C@@H](CC(C)C)C(=O)N[C@@H](CC(C)C)C(=O)N[C@@H](CCC(=O)O)C(=O)N[C@@H](C)C(=O)NCC(=O)N1CCC[C@H]1C(=O)N[C@@H](CO)C(=O)N[C@@H](CO)C(=O)NCC(=O)N[C@@H](C)C(=O)N1CCC[C@H]1C(=O)N1CCC[C@H]1C(=O)N1CCC[C@H]1C(=O)N[C@@H](CO)C(N)=O)C(C)C)[C@@H](C)CC
Regarding B5, the inhibition constant Ki turned out to be 0.129 nM in test [1], 112 nM with human glucagon receptor and 102 nM with human GLP-1 receptor.

One may read the Ki as the dissociation constant of the complex between target and ligand, obtained from inhibition or displacement.
